In US20240391991A1, “MODULATION OF WNT SIGNALLING IN PULMONARY DISORDERS” (Surrozen Operating, Inc., priority 2021, published 2024):
“Also recorded” adds a separate entry of the source.

Key:
human AT2 cell organoid [1] = assay: Human AT2 organoid size (diameter, microscopy); assay type: cell-based; details: in the absence of RSPO
[2] = tested on: acute bleomycin mouse model; assay: Bleomycin-induced acute lung injury (fibrosis) mouse model; assay type: in vivo; details: agent alone
From the text: The acute lung injury (single bleomycin treatment; FIG. 1) and chronic intermittent/low dose bleomycin mouse models (FIG. 2) were used to determine the therapeutic effects of Wnt antagonist and agonist (administered concurrently or sequentially or individually) in combination with or without anti-fibrotic drugs (e.g., pirfenidone and nintedanib) to assess effects on anti-fibrotic and improved respiratory functions (see, e.g., Degryse, A. et al. (2010) Am J Physiol Lung Cell Mol Physiol. 299:442-52). Improvement of fibrosis was observed upon treatment with a WNT agonist, SWAP5 (see, e.g., FIG. 7, FIG. 10). Specifically, bleomycin was administered intratracheally to the mice at day 0, and animals were treated twice weekly with an agonist approach—combination of SWAP5 (FZD1,2,5,7,8 multi-FZD-specific SWAP) and RSPO2 (combo)—for two weeks starting at day 7 until termination at day 21. […] Improvement of fibrosis was also observed upon treatment with a Wnt agonist or the Wnt signaling enhancer RSPO2 alone (FIG. 10).

[3] = tested on: mouse AT2 organoid cultures; assay: Mouse AT2 cell organoid expansion, CellTiter-Glo assay; assay type: cell-based; details: SWAP in combination with RSPO2; C59 present; FIG. 9
Description: (§1) In all of the AT2 cell organoid experiments, the Wnt signaling inhibitor, C59, was used to prevent endogenous secretion of Wnt ligands. […] AT2 cell organoid growth was assessed with the CellTiter Glo assay.

human AT2 cell organoid [4] = assay: Human AT2 cell organoid growth, CellTiter Glo assay; assay type: cell-based
Description: For ex vivo studies, 3D organoid cultures (see, e.g., Zacharias, W. et al. (2018) Nature 555:251-257 and Barkauskas et al. (2017) Development 144:986-997) were constructed by combining primary human lung fibroblasts from healthy, pulmonary fibrosis, or COPD patients with alveolar epithelial cells (AT2 and AEP cells) from patients. Organoids were cultured in SAGM medium with growth factor free Matrigel. The Wnt antagonist and agonist were added in a sequential or concurrent manner to determine the effect on the fibroblast/myofibroblast proliferation, matrix production, alveolar epithelial cell proliferation and AT1/AT2 cell fate trans-differentiation. Alveolar organoids can also be cultured directly from human distal lung cells including purified AT2 cells (Kobayashi et al., (2020) supra).
as §1

B1: SWAP3: FZD5,8-specific Wnt agonist (FZD5,8 and LRP6); heavy/light chains SEQ ID NO: 7 and 8 (antibody)
heavy: EVQLVESGGGLVQPGGSLRLSCAASGFTFTSYYISWVRQAPGKGLEWVAEISPYSGSTYYADSVKGRFTISADTSKNTAYLQMNSLRAEDTAVYYCALRARPPIRLHPRGSVMDYWGQGTLVTVSSGGGGSGGGGSGGGGSEVQLVESGGGLVQPGGSLRLSCAASGFNISYSYIHWVRQAPGKGLEWVASIYSSSGSTSYADSVKGRFTISADTSKNTAYLQMNSLRAEDTAVYYCARGAIDYWGQGTLVTVSSASTKGPSVFPLAPSSKSTSGGTAALGCLVKDYFPEPVTVSWNSGALTSGVHTFPAVLQSSGLYSLSSVVTVPSSSLGTQTYICNVNHKPSNTKVDKKVEPKSCDKTHTCPPCPAPEAAGGPSVFLFPPKPKDTLMISRTPEVTCVVVDVSHEDPEVKFNWYVDGVEVHNAKTKPREEQYNSTYRVVSVLTVLHQDWLNGKEYKCKVSNKALGAPIEKTISKAKGQPREPQVYTLPPSREEMTKNQVSLTCLVKGFYPSDIAVEWESNGQPENNYKTTPPVLDSDGSFFLYSKLTVDKSRWQQGNVFSCSVMHEALHNHYTQKSLSLSPGK
light: DIQMTQSPSSLSASVGDRVTITCRASQDVSTAVAWYQQKPGKAPKLLIYSASFLYSGVPSRFSGSGSGTDFTLTISSLQPEDFATYYCQQSYTTPPTFGQGTKVEIKGGGGSGGGGSGGGGSDIQMTQSPSSLSASVGDRVTITCRASQSVSSAVAWYQQKPGKAPKLLIYSASSLYSGVPSRFSGSRSGTDFTLTISSLQPEDFATYYCQQWYSSGHVLITFGQGTKVEIKRTVAAPSVFIFPPSDEQLKSGTASVVCLLNNFYPREAKVQWKVDNALQSGNSQESVTEQDSKDSTYSLSSTLTLSKADYEKHKVYACEVTHQGLSSPVTKSFNRGEC
human AT2 cell organoid growth as organoid size (diameter) (human AT2 cell organoid [1]; C59 present, FIG. 6): expand AT2 organoids
numbers of organoids and organoid size by microscopy (human AT2 cell organoid [1]; FIG. 8): increased numbers of organoids and organoid size
percentage of lung area affected by fibrosis ([2]; dosed four times between week 1 and week 3, vs anti-GFP, FIGS. 10-11): reduced the fibrosis score, the percentage of lung affected, immune cell infiltration, and cytokine levels in the acute bleomycin mouse model in a dose-dependent manner; also recorded: reduce the area of the lung that is fibrotic
fibrosis score (Modified Ashcroft) ([2]; dosed four times between week 1 and week 3, vs anti-GFP, FIGS. 10-12): reduced the fibrosis score, the percentage of lung affected, immune cell infiltration, and cytokine levels in the acute bleomycin mouse model in a dose-dependent manner; also recorded: lower the severity of fibrosis
percent of ACTA2 in the lung ([2]; FIG. 11D): reduction of fibrosis
immune cell infiltration / inflammation (H&E based pathology scores) ([2]; FIG. 11E): reduced the fibrosis score, the percentage of lung affected, immune cell infiltration, and cytokine levels in the acute bleomycin mouse model in a dose-dependent manner; also recorded: reduction in inflammation
IL6 in lung tissue (Meso Scale Discovery) ([2]; FIG. 11F): reduction in cytokines
IL1B in lung tissue (Meso Scale Discovery) ([2]; FIG. 11G): reduction in cytokines
GRO/CXCL1 in lung tissue (Meso Scale Discovery) ([2]; FIG. 11H): reduction in cytokines
cytokine levels ([2]; lung tissue, FIG. 11): reduced the fibrosis score, the percentage of lung affected, immune cell infiltration, and cytokine levels in the acute bleomycin mouse model in a dose-dependent manner
expansion of mouse AT2 organoid cultures (CellTiter-Glo) [3]: led to the expansion of mouse AT2 organoid cultures
effectiveness on human AT2 organoid expansion versus Chir99021 (human AT2 cell organoid [4]; 10 nM concentration, in the absence of RSPO, FIG. 8): more effective than the small molecule Wnt pathway activator, Chir99021
human AT2 organoid culture outgrowth/viability (CellTiter Glo) (human AT2 cell organoid [4]; SWAP alone, in the absence of RSPO, C59 present, FIG. 8): induced human AT2 organoid culture outgrowth/viability as assessed by the CellTiter Glo assay in a concentration-dependent manner; also recorded: induce human AT2 cell organoid expansion alone (in the absence of RSPO) in a dose-dependent manner
self-renewal and expansion of human AT2 cells (human AT2 cell organoid [4]; summary of organoid results): promotes the self-renewal and expansion of human AT2 cells
